Experiments:
[1] = biological target: T1, MLO-Y4 cell surface proteins (Mus musculus, UniProt P52825); assay: Crosslinking/co-immunoprecipitation/mass spectrometry (TMT quantitative proteomics) to identify irisin receptors; format: binding; details: co-precipitated protein Cpt2 (CPT2_MOUSE)
T1 construct: endogenous in cells; host or cells: MLO-Y4
T1 sequence (P52825 26-658): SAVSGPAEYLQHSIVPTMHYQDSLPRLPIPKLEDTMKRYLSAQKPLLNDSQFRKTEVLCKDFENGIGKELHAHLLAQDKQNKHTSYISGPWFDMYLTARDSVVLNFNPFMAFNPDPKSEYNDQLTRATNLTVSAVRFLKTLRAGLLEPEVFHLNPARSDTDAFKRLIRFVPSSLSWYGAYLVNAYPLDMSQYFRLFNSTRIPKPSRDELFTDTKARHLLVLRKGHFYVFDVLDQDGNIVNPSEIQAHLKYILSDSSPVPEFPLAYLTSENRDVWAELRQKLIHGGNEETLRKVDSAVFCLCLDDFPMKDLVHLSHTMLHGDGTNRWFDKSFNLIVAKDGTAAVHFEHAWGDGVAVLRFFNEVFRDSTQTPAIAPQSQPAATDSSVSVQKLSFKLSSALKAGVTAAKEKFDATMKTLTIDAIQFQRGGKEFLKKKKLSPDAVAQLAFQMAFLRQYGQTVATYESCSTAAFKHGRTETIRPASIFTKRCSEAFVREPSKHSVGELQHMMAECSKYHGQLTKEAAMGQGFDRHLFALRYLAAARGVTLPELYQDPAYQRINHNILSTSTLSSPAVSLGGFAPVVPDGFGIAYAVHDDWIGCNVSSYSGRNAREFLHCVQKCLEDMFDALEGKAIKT
How it was run: (§1)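 Mouse MLO-Y4 cells were switched to serum-free FreeStyle medium for 4 h, chilled, then exposed to 10 nM His-tagged irisin (or adipsin as control) for 20 min. Cells were crosslinked with 1.5 mM DTSSP (30 min, ice), and bound proteins were pulled down on Ni-NTA and eluted with 250 mM imidazole. Eluates were separated by SDS-PAGE, trypsin-digested in gel, TMT 6-plex labelled and quantified by MS3-based LC-MS/MS on an Orbitrap Fusion Lumos.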

[2] = biological target: T2, MLO-Y4 cell surface proteins (Mus musculus, UniProt Q9CXD6); assay: as above; format: binding; details: co-precipitated protein Mcur1 (MCUR1_MOUSE)
T2 construct: endogenous in cells; host or cells: MLO-Y4
T2 sequence (Q9CXD6 1-340): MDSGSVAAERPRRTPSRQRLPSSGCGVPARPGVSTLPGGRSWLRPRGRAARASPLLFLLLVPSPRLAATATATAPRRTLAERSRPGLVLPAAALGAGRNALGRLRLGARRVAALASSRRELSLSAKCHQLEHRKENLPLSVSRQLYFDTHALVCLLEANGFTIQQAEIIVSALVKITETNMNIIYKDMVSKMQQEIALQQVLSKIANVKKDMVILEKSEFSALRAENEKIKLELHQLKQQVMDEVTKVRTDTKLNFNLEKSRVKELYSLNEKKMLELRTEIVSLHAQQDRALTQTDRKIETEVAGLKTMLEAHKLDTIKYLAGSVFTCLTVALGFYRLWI
How it was run: as §1

B1: irisin: secreted cleaved form of FNDC5; recombinant human/mouse irisin with C-terminal his tag produced in HEK293 cells (protein)
chain: DSPSAPVNVTVRHLKANSAVVSWDVLEDEVVIGFAISQQKKDVRMLRFIQEVNTTTRSCALWDLEEDTEYIVHVQAISIQGQSPASEPVLFKTPREAEKMASKNKDEVTMKE
modifications: left off: small tags and cut ends
notes: secreted cleaved form of FNDC5; recombinant human/mouse irisin with C-terminal his tag produced in HEK293 cells
- TMT signal-to-noise ratio [1]: 96.8301
- irisin/adipsin TMT signal-to-noise ratio [1]: 0.545
- TMT signal-to-noise ratio [2]: 951.207
- irisin/adipsin TMT signal-to-noise ratio [2]: 0.583

Reference: patent US20210063414A1, “METHODS FOR PREVENTING AND/OR TREATING BONE LOSS CONDITIONS BY MODULATING IRISIN” (Dana-Farber Cancer Institute, Inc., priority 2018, published 2021)
